Results: patent publication US7553821B2, “Methods for selectively modulating survivin apoptosis pathways” (Yale University, priority 2000, dated 2009)
“Also recorded” adds a separate entry of the source.

What was measured:
[1] = biological target: T1, p34^cdc2 (Homo sapiens, UniProt P06493); experiment: Co-immunoprecipitation of survivin and p34cdc2 from HeLa cells; format: binding; settings: asynchronously growing transfected HeLa cells
T1 construct: immunoprecipitated with an antibody to HA, and immunoblotted with antibodies to p34^cdc2 or HA; endogenous in cells; host or cells: HeLa
Procedure: The experimental procedures are the same as in A, except that asynchronously growing HeLa cells were transfected with HA-survivin or HA-survivin(T34A), immunoprecipitated with an antibody to HA, and immunoblotted with antibodies to p34^cdc2 or HA. W, whole HeLa cell extract.
(§1) Transfection experiments. For transient transfection, HeLa cells in C-6 tissue culture plates (Costar, Cambridge, Mass.) at ˜60-70% confluency, were incubated in 1 ml of serum-free OptiMEM medium (Life Technologies, Gaithersburg, Md.) for 20 min, and transfected with 2.5 μg of the various plasmid cDNAs plus 9 μl Lipofectamine (Life Technologies). After a 5 h incubation at 37° C., the mixture was aspirated and substituted with complete growth medium for 48-72 h. To generate stable YUSAC-2 transfectants, a survivin(T34A) cDNA was inserted into the HindIII-SpeI sites of the pTet-splice vector (Dr. D. Schatz, Yale University School of Medicine), downstream of the regulatory sequences of the Tet-resistance operon (TetO). YUSAC-2 cells were transfected with 0.8 μg pTet-T34A, 0.8 μg of the transactivation/selection plasmid ptTA-Neo and 5 μl Lipofectamine in 1 ml of OptiMem. […] Gated GFP-expressing cells were analyzed for DNA content by flow cytometry on a FACSort (Becton Dickinson, San Jose, Calif.) using a Cell Quest software. […]

[2] = biological target: T2, p34^cdc2-cyclin B1 (Homo sapiens, UniProt P06493); experiment: In vitro kinase assay with p34cdc2-cyclin B1; format: biochemical; settings: recombinant protein as substrate, 32P-ATP, 30 min at 30° C., autoradiography
T2 construct: host or cells: baculovirus expression system
Procedure: FIG. 1B. In vitro kinase assay. Wild type (WT) survivin, survivin(T34A) (T34A), or control (H1) were incubated with baculovirus-expressed p34^cdc2-cyclin B1 or cdk2-cyclin E in kinase buffer plus 10 μCi γ-^32P-ATP for 30 min at 30° C. Samples were separated by SDS gel electrophoresis and radioactive bands were visualized by autoradiography. Equal protein loading was confirmed by Coomassie blue staining of the gel.
as §1, with “(TetO).” for “(TetO). YUSAC-2 cells were transfected with 0.8 μg pTet-T34A, 0.8 μg of the transactivation/selection plasmid ptTA-Neo and 5 μl Lipofectamine in 1 ml of OptiMem.”

[3] = test system: F5.C4 tumors; experiment: Effect on established F5.C4 tumors in mice; format: in vivo
Procedure: Error bars indicate standard deviation. Also shown are 5 representative growth curves from 15 animals in which tet was withheld (day 0) upon tumor formation (no symbols).
Next, the effect of survivin Thr^34→Ala on established tumors was assessed. Fifteen mice were injected with F5.C4 cells and tet was provided to permit tumor formation. Once tumors became apparent (20-50 mm^3), tet was withheld from the drinking water and tumors were monitored for 5 weeks. […] Rather, a spectrum of growth curves with some tumors failing to grow at all after tet was withdrawn was observed (FIG. 10A). […] In the two small F5.C4 tumors that formed in the absence of tet (Table I), a similar pattern of apoptotic cell death was seen (not shown).

T1 sequence (P06493 whole entry): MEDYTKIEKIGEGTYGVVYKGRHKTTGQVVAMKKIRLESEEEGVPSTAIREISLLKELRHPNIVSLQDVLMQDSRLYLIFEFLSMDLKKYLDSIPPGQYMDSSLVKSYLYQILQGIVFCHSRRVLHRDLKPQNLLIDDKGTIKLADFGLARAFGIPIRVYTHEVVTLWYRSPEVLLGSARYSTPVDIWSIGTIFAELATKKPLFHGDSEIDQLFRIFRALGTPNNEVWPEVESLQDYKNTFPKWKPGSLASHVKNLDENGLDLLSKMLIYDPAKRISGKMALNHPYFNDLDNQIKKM
T2 sequence (P06493 whole entry): as above
T2 sequence (P14635 whole entry partner): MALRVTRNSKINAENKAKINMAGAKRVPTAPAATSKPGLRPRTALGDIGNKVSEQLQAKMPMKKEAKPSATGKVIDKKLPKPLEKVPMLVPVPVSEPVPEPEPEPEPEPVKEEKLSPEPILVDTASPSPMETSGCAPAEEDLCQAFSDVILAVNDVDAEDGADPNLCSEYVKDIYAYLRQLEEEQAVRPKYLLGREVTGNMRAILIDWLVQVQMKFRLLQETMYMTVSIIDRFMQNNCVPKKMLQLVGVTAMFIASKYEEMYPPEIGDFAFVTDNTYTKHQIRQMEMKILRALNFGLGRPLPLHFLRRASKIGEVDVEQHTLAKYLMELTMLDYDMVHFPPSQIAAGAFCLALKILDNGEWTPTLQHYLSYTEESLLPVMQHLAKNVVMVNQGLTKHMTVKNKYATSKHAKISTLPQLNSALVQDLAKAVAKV

Substance: survivin(T34A): dominant-negative, non-phosphorylatable survivin mutant with Thr34→Ala substitution, expressed from transfected cDNA (also HA- or GFP-tagged)
- p34^cdc2 in HA immunoprecipitates by Western blotting [1]: contained a prominent p34^cdc2 band
- phosphorylation by p34^cdc2-cyclin B1 [2]: abolished phosphorylation
- growth of established tumors after tet withdrawal ([3]; F5.C4 tumors 20-50 mm^3 at withdrawal, monitored for 5 weeks): None of the tumors grew at a rate comparable to F5.C4 tumors in animals maintained on tet
- histologic analysis of tumors after transgene induction ([3]; F5.C4 tumors, tet withdrawn, listed as survivin Thr^34→Ala): massive areas of necrosis and prominent cellular apoptosis by TUNEL; also recorded: lack of normal mitotic figures and the presence of aberrant mitoses
